Measured values: patent publication US20260234655A1, “Nuclear Targeted DNA Delivery and Compositions for Use in Practicing the Same” (Seawolf Therapeutics, Inc., priority 2022, published 2026)

How the values were obtained:
[1] = system: primary human hepatocytes; test: pDNAs containing DTSs transfected into primary human hepatocytes; GFP by quantitative live-cell imaging and FACS; type: cell-based; settings: 24 h post-transfection
Source text: (§1) DNA construct design. Each DTS was constructed in pentameric repeat using a 15 bp spacer between each TFBS. The DTS was appended just 5′ to the promoter, effectively in a putative enhancer region. Various promoters were employed in these constructs, including CBh (a variant of the CAG promoter) and TTR. Several reporter genes were employed in these constructs, including enhanced Green Fluorescent Protein (eGFP). The polyadenylation (polyA) signal is a BGH-PolyA sequence. For pooled screening, unique molecular identifiers (UMIs; also known as barcodes) were used to distinguish between DNA constructs in a pool, and the UMIs were appended to the 3′UTR immediately downstream of the stop codon of eGFP, just preceding the BGH-PolyA sequence.
Plasmid DNAs (pDNAs) containing various DTSs were transfected into primary human hepatocytes. GFP expression was quantified 24 h post-transfection by measuring GFP intensity using quantitative live-cell imaging, then cells were harvested and the % of GFP-positive cells was measured by FACS. A strong correlation between total GFP intensity and % GFP-positive cells was observed (FIG. 3A). The DTSs identified as hits (open circles) increased both the GFP intensity and the % GFP-positive cells compared to the Spacer negative control (FIG. 3A). […]

[2] = system: growth-arrested HepG2 cells; test: Arrayed DTS screen in growth-arrested HepG2 cells; GFP intensity by live-cell imaging; type: cell-based; settings: 24 h post-transfection
Source text: as §1
Cell culture. HepG2 cells were plated into a 384-well plate and grown for 48 hours to achieve confluency. Cell media was removed and replaced with culture media supplemented with Aphidicolin (1 uM) using EL406 automated plate washer and dispenser, then cells were transfected with DTS containing 17.5 ng plasmids using Lipofectamine 3000 without supplement. Expression of GFP was monitored using a Biotek Cytation 5 cell imaging reader over 24 hours to evaluate DTS activity. Total GFP per well was calculated and averaged over 4 well replicates.
pDNAs containing various DTSs (Table 12) were transfected individually into growth-arrested HepG2 cells. Cell growth was inhibited to prevent dissolution of the nuclear envelope. GFP expression was quantified over a period of 24 h post-transfection by measuring GFP intensity using quantitative live-cell imaging. Statistical analysis and hierarchical clustering methods were used to easily differentiate strong DTSs from weak DTSs in a heatmap (FIG. 5A). […] DTS.203: CREB1, PPARA, ONECUT1, HNF4A, PPARA. DTS.233: HNF1A, NR113, PPARA, HNF1A, PPARA. DTS.276: FOXA1, HNF4A, HNF1A, HNF4A, HNF1A.
For the arrayed screen, pDNAs containing various DTSs were transfected individually into growth-arrested HepG2 cells. For the pooled screen, pDNAs containing various DTSs were pooled together and transfected as a pool into growth-arrested HepG2 cells. Cell growth was inhibited to prevent dissolution of the nuclear envelope, which improves the accuracy of measuring DTS activity related to nuclear translocation. For the arrayed screen, GFP protein expression was quantified 24 h post-transfection by measuring GFP intensity using quantitative live-cell imaging. For the pooled screen, mRNA abundance for each DTS variant was determined using RNA-seq by deconvoluting the read counts for each UMI. A strong correlation between protein expression in the arrayed screen and mRNA expression in the pooled screen was observed (FIG. 6). […] Pooled screening can thus be used to quickly and reliably identify strong DTSs.

B1: NFKB: benchmark DTS with NF-κB binding sites in pentameric repeat (SEQ ID NO: 140) (nucleic acid)
DNA: GGGACTTTCCAGATTACTACTGATAGGGACTTTCCAGATTACTACTGATAGGGACTTTCCAGATTACTACTGATAGGGACTTTCCAGATTACTACTGATAGGGACTTTCC
modifications: DNA nuclear targeting sequence within DNA cargo construct, further chemistry not given here
- gene expression compared to the pDNA with no DTS [1]: robust increases
- increase in GFP intensity compared to the pDNA with no DTS [1]: ~10 fold
- GFP intensity / gene expression in arrayed screen compared to Spacer negative control [2]: robust increases
